Laboratory results published in patent publication US20250230207A1, “COMPOSITION” (Worg Pharmaceuticals (Zhejiang) Co., Ltd., priority 2017, published 2025).

B1: gpMBP: guinea pig myelin basic protein (SEQ ID NO: 6), immunising antigen (protein, listed as Cavia porcellus)
chain: ASQKRPSQRHGSKYLATASTMDHARHGFLPRHRDTGILDSIGRFFGSDRAAPKRGSGKDSHHAARTTHYGSLPQKSQRSQDENPVVHFFKNIVTPRTPPPSQGKGRGLSLSRFSWGAEGQKPGFGYGGRADYKSKGFKGAHDAQGTLSKIFKLGGRDSRSGSPMARR
B2: huMBP: human myelin basic protein, immunising antigen (protein, UniProt P02686 1-304, looked up)
Myelin basic protein: MGNHAGKRELNAEKASTNSETNRGESEKKRNLGELSRTTSEDNEVFGEADANQNNGTSSQDTAVTDSKRTADPKNAWQDAHPADPGSRPHLIRLFSRDAPGREDNTFKDRPSESDELQTIQEDSAATSESLDVMASQKRPSQRHGSKYLATASTMDHARHGFLPRHRDTGILDSIGRFFGGDRGAPKRGSGKDSHHPARTAHYGSLPQKSHGRTQDENPVVHFFKNIVTPRTPPPSQGKGRGLSLSRFSWGAEGQRPGFGYGGRASDYKSAHKGFKGVDAQGTLSKIFKLGGRDSRSGSPMARR

What was measured:
Assay type in all cases: in vivo, Lewis rat
[1] = tested on: experimental autoimmune encephalomyelitis (EAE) in Lewis rats; test: Example 1: development of experimental autoimmune encephalomyelitis (EAE) after immunisation; conditions: paralytic symptom scoring 0-6
Protocol: (§1) Adult female Lewis rats were randomly allocated to experimental groups and allowed to acclimatise for one week. On Day 0, animals were administered by subcutaneous injection with 200 microliters of an emulsion containing 20 micrograms of IRBP1177-1191 (Cambridge Bioscience, UK) and/or 100 micrograms of human (Fitzgerald Industries International, MA, US) or guinea pig Myelin Basic Protein (gpMBP) in incomplete Freund's adjuvant (Sigma, UK) supplemented with 5 mg/ml Mycobacterium Tuberculosis H37Ra ([…]) (Becton Dickenson, UK). From Day 0 until the end of the experiment, animals were weighed daily. From Day 0 until the end of the experiment, animals were scored daily for clinical signs of experimental autoimmune encephalomyelitis to include limpness, paresis and/or paralysis of the tail, hind limbs and/or front limbs. From Day 0 until the end of the experiment, animals were scored twice weekly for clinical signs of uveitis. On Day 21 (Groups 1, 2 and 3) or Day 28 (Groups 4 and 5), animals were culled and the following samples were dissected out and stored in tissue fixative for optional histopathology analysis: brain, spinal cord, right and left eyes.
Guinea pig MBP may induce Experimental autoimmune encephalomyelitis (EAE) in Lewis rats, a model for multiple sclerosis (MS). In this experiment, severe EAE was developed in Lewis rats immunised with gpMBP alone (incidence 8/8 rats; mean max score 3.5) or in combination with IRBP peptide (incidence 8/8 rats; mean max score 3.9) using the scoring system for paralytic symptoms: 0) no abnormality, (0.5) partial tail limpness, (1) complete tail limpness, (2) one hind limb paresis, (2.5) two hind limbs paresis, (3) one hind limb paralysis, (4) two hind limb paralysis, (5) incontinence and (6) moribund.

[2] = tested on: experimental autoimmune uveitis (EAU) in Lewis rats; test: Example 1: development of uveitis (EAU) after immunisation with IRBP, gpMBP and/or huMBP; conditions: for Maximum Score of EAU: TEFI retinal score, maximum possible 6; for clinical signs of anterior uveitis: visual score 0-3, compared to the gpMBP-administered group, data until Day 21
Protocol: This study aimed at studying the effect, in Lewis rats, of immunisations with guinea pig myelin basic protein (gpMBP), human myelin basic protein (huMBP) and/or interphotoreceptor retinoid-binding protein with regard to development of encephalomyelitis (EAE) and/or uveitis (EAU).
as §1
From Day 0 until the end of the experiment, animals were visually scored twice per week for clinical signs of anterior uveitis using the following scoring system. The maximum possible score was 3. Data were graphed (Mean±SEM).
From Day 0 until the end of the experiment, animals were scored twice per week for clinical signs of intermediate and posterior uveitis. Retinal images were captured using TEFI in non-anaesthetised but restrained animals following pupil dilatation using Tropicamide 1% then Phenylephrine hydrochloride 2.5%. Retinal images were scored using the following system. The maximum possible score was 6. Data were graphed (Mean±SEM).
Animals with an average score for both eyes greater than 0.5 on at least two consecutive TEFI sessions (see FIG. 2) or a score greater than 1.0 on any occasion were considered to have developed clinical signs of posterior uveitis. Based on this criterion, the incidence of EAU was:
Due to the lack of pigmentation in the retina of Lewis rats, the scoring system below was used. This is due to the inability to identify areas of infiltration causing haziness and cuffing on a pale background. Inflammation of the optic disc could not be clearly identified and was not therefore scored, also, no structural damage was observed. Infiltration of retinal vessels could be identified by engorged appearance on a scale of 0-3, mild to severe. Retinal inflammation was identified by the appearance of small to large areas of redness caused by increase in vascularisation also on a scale of 0-3, giving a total possible score of 6.
Clinical signs of anterior uveitis were also observed during the experiment. Data collected until Day 21 were analysed by two-way ANOVA followed by Dunnett's post-test for multiple comparisons between experimental groups.

[3] = Example 1: bodyweights and non-specific clinical observations; conditions: Day 11 to Day 21, compared to the IRBP-administered group
Excerpt: Adult female Lewis rats were randomly allocated to experimental groups and allowed to acclimatise for one week. […] From Day 0 until the end of the experiment, animals were weighed daily. From Day 0 until the end of the experiment, animals were scored daily for clinical signs of experimental autoimmune encephalomyelitis to include limpness, paresis and/or paralysis of the tail, hind limbs and/or front limbs. From Day 0 until the end of the experiment, animals were scored twice weekly for clinical signs of uveitis. On Day 21 (Groups 1, 2 and 3) or Day 28 (Groups 4 and 5), animals were culled and the following samples were dissected out and stored in tissue fixative for optional histopathology analysis: brain, spinal cord, right and left eyes.
From Day 0 until the end of the experiment, animals were checked daily for non-specific clinical signs to include abnormal posture (hunched), abnormal coat condition (piloerection) and abnormal activity levels (reduced or increased activity).
From Day 0 until the end of the experiment, animals were weighed daily.

[4] = Lewis rats immunised SC Day 0 in CFA

| Molecule | EAE incidence [1] | EAE mean max score [1] | Onset (Day) of EAU [2, 4] [days] | Incidence of EAU (clinical signs of posterior uveitis) ([2]; Lewis rats immunised SC Day 0 in CFA, TEFI score criterion, affected/total in brackets) | Maximum Score of EAU [2] | clinical signs of anterior uveitis [2] | bodyweight loss [3] | severity of the clinical signs of EAU compared to the other immunised groups ([2]; vs IRBP (p<0.001), IRBP and gpMBP (p<0.01), IRBP and huMBP (p<0.01), huMBP (p<0.05)) |
| --- | --- | --- | --- | --- | --- | --- | --- | --- |
| ADGSSWEGVGVVPDV [IRBP, reference compound] | 2/8 | 1.0 | 10.5 ± 0.5 | 100% (8/8) | 5.6 ± 0.3 | observed from Day 11 | no significant bodyweight loss | – |
| B1 | 8/8 | 3.5 | 11.5 ± 0.5 | – | 1.1 ± 0.2 | – | significant bodyweight loss | significantly lower |
| B2 | 3/14 | 1.0 | 10.2 ± 0.7 | – | 4.1 ± 0.5 | observed on Day 14 (p<0.0001) and Day 18 (p<0.01) | no significant bodyweight loss | – |
